The target of data set [1] is T1, XMRV reverse transcriptase (full-length, monomeric) (Xenotropic murine leukaemia …, UniProt A1Z651 658-1328). Description: SAXS.
Data set [2] concerns the target T1, XMRV reverse transcriptase …. The experiment in a line: SAXS. The source holds these as a separate data set.
Data set [3] shares this target. The experiment in a line: X-ray crystallography.

B1: PPT-19 (DNA:RNA)
RNA: UAGUCUCCAGAAAAAGGGGGGAAUG
DNA: ATTCCCCCCTTTTTCTGGAGAC
Regarding B1, in data set [1], the binding result is given as “binds”.

B2: PPT-18 (DNA:RNA)
RNA: AGUCUCCAGAAAAAGGGGGGAAUGA
DNA: CATTCCCCCCTTTTTCTGGAGA
Consider B2, for which the binding result in data set [2] is recorded as “binds”.

B3: hybrid 1 (DNA:RNA)
RNA: AACAGAGUGCGACACCUGAUUCCAU
DNA: TGGAATCAGGTGTCGCACTCTG
For the molecule B3, in data set [3], the binding result is recorded as “binds”.

These data come from publication PMC3616737.
